Assay results taken from article PMC9679424, “The CARD8 T60 variant associates with NLRP1 and negatively regulates its activation” (Frontiers in Immunology, 2022).

Molecular target: T1, NLRP1-FLAG (human, UniProt Q9C000-1 1-1473)
T1 construct: NLRP1, human, UniProt Q9C000-1, full length; The host of the purified protein is told only as a mammalian expression system; also called full-length NLRP1; Flag-tagged NLRP1; source: HEK 293T, transiently transfected, in lysate; also purified using mammalian protein expression system
T1 sequence (looked up): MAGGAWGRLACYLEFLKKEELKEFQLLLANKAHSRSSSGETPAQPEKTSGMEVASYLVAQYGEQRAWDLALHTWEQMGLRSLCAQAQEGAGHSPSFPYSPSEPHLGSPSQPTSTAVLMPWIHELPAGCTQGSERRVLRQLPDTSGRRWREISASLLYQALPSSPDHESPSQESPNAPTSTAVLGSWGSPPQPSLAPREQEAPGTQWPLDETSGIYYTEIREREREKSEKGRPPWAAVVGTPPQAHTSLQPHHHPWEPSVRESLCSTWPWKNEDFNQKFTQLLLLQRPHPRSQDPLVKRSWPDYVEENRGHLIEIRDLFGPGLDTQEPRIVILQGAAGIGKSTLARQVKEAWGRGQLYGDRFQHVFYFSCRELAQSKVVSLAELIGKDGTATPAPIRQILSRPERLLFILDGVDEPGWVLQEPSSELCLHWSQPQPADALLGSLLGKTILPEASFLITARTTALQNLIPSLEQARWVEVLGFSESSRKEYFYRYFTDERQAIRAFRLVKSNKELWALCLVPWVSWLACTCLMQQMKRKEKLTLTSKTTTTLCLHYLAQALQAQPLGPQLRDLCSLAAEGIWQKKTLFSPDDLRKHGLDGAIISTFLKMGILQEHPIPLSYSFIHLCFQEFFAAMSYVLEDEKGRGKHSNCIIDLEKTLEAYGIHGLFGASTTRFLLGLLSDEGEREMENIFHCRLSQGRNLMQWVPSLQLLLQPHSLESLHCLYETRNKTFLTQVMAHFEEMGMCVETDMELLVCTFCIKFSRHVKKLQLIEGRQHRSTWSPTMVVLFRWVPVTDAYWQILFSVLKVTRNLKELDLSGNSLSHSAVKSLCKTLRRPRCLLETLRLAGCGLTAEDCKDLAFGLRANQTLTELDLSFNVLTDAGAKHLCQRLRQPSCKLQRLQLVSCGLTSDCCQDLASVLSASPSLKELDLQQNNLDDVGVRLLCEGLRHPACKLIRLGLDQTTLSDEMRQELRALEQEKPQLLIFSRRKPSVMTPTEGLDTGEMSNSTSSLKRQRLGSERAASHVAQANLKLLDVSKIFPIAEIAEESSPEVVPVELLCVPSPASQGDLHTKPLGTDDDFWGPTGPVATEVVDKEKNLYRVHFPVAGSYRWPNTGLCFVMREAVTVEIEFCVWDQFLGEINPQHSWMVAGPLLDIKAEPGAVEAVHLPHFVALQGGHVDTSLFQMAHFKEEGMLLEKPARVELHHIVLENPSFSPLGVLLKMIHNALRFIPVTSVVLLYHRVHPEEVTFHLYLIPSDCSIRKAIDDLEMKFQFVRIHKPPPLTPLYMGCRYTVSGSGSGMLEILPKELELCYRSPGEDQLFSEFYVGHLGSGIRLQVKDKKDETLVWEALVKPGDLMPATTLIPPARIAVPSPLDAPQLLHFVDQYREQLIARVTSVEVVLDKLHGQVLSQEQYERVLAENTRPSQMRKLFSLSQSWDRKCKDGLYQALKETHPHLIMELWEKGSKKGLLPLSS
Assay: co-IP; HEK 293T cells transiently co-transfected, 28 hours; lysate (20 mM Tris-HCl pH 7.5, 100 mM KCl, 5 mM MgCl2, 0.3% NP-40); precipitation by the Strep tag of CARD8-T60-Strep (anti-Strep; Strep-Tactin gel) overnight at 4 °C; immunoblotting
Details: partners not purified

B1: CARD8-T60-Strep (natural protein, human, UniProt Q9Y2G2-5 1-537, looked up)
chain: MEKKECPEKSSSSEEELPRRDSGSSRNIDASKLIRLQGSRKLLVDNSIRELQYTKTGIFFQAEACVTNDTVYRELPCVSETLCDISHFFQEDDETEAEPLLFRAVPECQLSGGDIPSVSEEQESSEGQDSGDICSEENQIVSSYASKVCFEIEEDYKNRQFLGPEGNVDVELIDKSTNRYSVWFPTAGWYLWSATGLGFLVRDEVTVTIAFGSWSQHLALDLQHHEQWLVGGPLFDVTAEPEEAVAEIHLPHFISLQAGEVDVSWFLVAHFKNEGMVLEHPARVEPFYAVLESPSFSLMGILLRIASGTRLSIPITSNTLIYYHPHPEDIKFHLYLVPSDALLTKAIDDEEDRFHGVRLQTSPPMEPLNFGSSYIVSNSANLKVMPKELKLSYRSPGEIQHFSKFYAGQMKEPIQLEITEKRHGTLVWDTEVKPVDLQLVAASAPPPFSGAAFVKENHRQLQARMGDLKGVLDDLQDNEVLTENEKELVEQEKTRQSKNEALLSMVEKKGDLALDVLFRSISERDPYLVSYLRQQNL
notes: CARD8, T60 isoform, human, UniProt Q9Y2G2-5, full length; The host of the purified protein is told only as a mammalian expression system; also called CARD8-Strep; T60 isoform of CARD8; source: HEK 293T, transiently transfected, in lysate; also purified using mammalian protein expression system
Question: Does B1 bind?
Answer: Result: binds
